One series relates to non-diabetic NOD mice. The series can be described thus: Immune phenotyping (FACS) of tissues of treated NOD mice. The series is classed as in vivo, mouse. The note with it: mean. The method, then:
To perform immune phenotyping, mice were euthanized with CO2 and cardiac perfusion performed with 40 ml of sterile PBS. Whole pancreas, pancreatic lymph nodes (PLN), inguinal lymph nodes (ILN), and spleen were harvested, diced into 1 mm pieces, placed in digestion buffer (RPMI 1640, lmg/ml Collagenase Type IV, 10 U/ml DNAsel, and 1% BSA), and incubated at 37° C. for 20 min shaking at 250 rpm. Pancreas samples were filtered through a 40 μm nylon strainer into a fresh 50 ml tube, and fresh media added up to 40 ml (RPMI 1640, 1% FBS, 1% Sodium Pyruvate, 1.56 ul β-mercaptoethanol). Tubes were then centrifuged at 1500 rpm for 10 min, supernatant removed, and cells resuspended in 2 ml fresh media. Resuspended cells were passed through a 40 μm nylon filter into a 15 ml round-bottomed polystyrene tube. For PLN, ILN, and spleen, digestion samples were filtered through a 40 μm nylon strainer into a 15 ml round bottom polystyrene tube, and lml of media was added. Spleen samples had supernatant removed, and lml ACK lysis buffer (Thermo Scientific A1049201) added for 2 min at room temperature. Samples were then centrifuged at 1500 rpm for 5 min, and resuspended in 1 ml media. All samples were centrifuged at 1500 rpm for 5 min, supernatant removed, and cells resuspended in FACS buffer (5% BSA in cold PBS; 0.5 ml for PLN and ILN, lml for pancreas and spleen). Staining and FACS analysis were performed as previously described (Engin et al., 2013).

The target in the next series is FABP4 (Homo sapiens, UniProt P15090). In words: Antibody binding affinity for FABP4. The note with it: compared to traditional therapeutic antibodies.
Chain of FABP4 (P15090 whole entry): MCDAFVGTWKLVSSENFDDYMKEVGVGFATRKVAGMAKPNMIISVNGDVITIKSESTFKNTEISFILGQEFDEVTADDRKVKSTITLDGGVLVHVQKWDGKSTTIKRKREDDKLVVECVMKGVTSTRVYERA
The target of the next series is T1, recombinant ADK (Homo sapiens, UniProt P55263).
T1 construct: purchased Novus Biologicals or R&D Systems NBP1-44382 or 8024-AK-025
T1 sequence (P55263 whole entry): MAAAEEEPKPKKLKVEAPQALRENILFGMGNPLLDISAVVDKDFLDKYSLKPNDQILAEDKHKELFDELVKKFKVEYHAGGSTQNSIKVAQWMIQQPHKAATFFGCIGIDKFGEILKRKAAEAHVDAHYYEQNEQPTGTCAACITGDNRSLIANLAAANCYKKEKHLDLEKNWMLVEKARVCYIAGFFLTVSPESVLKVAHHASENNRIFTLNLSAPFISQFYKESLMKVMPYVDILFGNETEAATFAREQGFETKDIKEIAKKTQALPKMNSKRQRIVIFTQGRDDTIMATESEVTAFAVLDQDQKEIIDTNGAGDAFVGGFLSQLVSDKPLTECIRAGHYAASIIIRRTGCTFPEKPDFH
The series can be described thus: Recombinant kinase activity assay, ADK (Kinase-Glo). The series is classed as biochemical. As to the method:
An on-bead kinase assay was developed to measure the activity of endogenous NDPK and ADK pulled down from serum using a-Ab or c-Ab conjugated beads. Both NDPK and ADK are bi-directional kinases that will produce ATP or ADP depending on the substrates provided (FIGS. 4B-C). Kinase activity assays were performed in 384-well plates in reaction buffer (PBS with 0.1% BSA, 0.01% F-127, 5 mM MgCl2). Experiments with recombinant proteins were performed at final concentrations of 40 μg/ml for ADK and FABP4, and 20 ug/ml for NDPK, and a reaction volume of 10 μl. Antibodies were used at a final concentration of 80 ug/ml. Substrates were added in equimolar ratios depending on the kinase being assayed and the direction of the reaction in serial dose responses, with the highest concentration of 5 μM. Proteins and substrates were incubated for 1 hr at room temperature, and ADP and ATP production were monitored using ADP-Glo and Kinase-Glo kits, respectively, according the manufacturer instructions (V6930 and V6711 Promega, USA). Luminescence was quantified using a SpectraMax Paradigm plate reader 30 min after the addition of substrate. Consistent with the MS results, ADK activity, as measured by generation of ATP, was specifically observed in samples pulled down with a-Ab but not c-Ab (FIG. 5A). […] To test this possibility, the ATP and ADP generating activity of recombinant ADK was assessed in the presence of the proposed complex components.

The test system of another series is primary human islets. The series can be described thus: Glucose-stimulated insulin secretion (GSIS), human islets. The series is classed as cell-based. The method, then:
Primary islet isolation from mice was performed as previously described (Batchuluun et al., 2018; Prentice et al., 2014) and GSIS was assessed following acute treatment with NDPK-ADK in the presence or absence of FABP4. Insulin secretion assays were performed as previously described (Prentice et al., 2014). For primary islets, 20 islets were hand-picked into 1.5 ml tubes, washed twice with Krebs Ringer Buffer (KRB) without glucose, and pre-incubated in 500 μl low glucose (LG; 2.8 mM) KRB for 1 hour at 37° C. KRB was then removed and 250 μl of fresh LG KRB added. Islets were incubated for 20 minutes at 37° C. Supernatant was collected and 250 μl high glucose (HG; 16.7 mM) KRB added. Islets were incubated for 20 minutes at 37° C. In conditions where KCl was used, HG KRB was collected, and 250 μl KC1 (16.7 mM glucose, 30 mM KCl) KRB added. Islets were incubated for 20 minutes at 37° C., and supernatant collected. Following the stimulation protocol, cells were lysed in 100 μl acid ethanol (70% ethanol, 1% HCl in water) and stored at 4° C. overnight. Samples were evaporated using a SpeedVac until dried, and resuspended in 60 μl ultrapure water. DNA was quantified by Nanodrop (ThermoFisher, USA). Insulin from supernatant was quantified using insulin HTRF (Insulin Ultrasensitive Assay kit 62IN2PEH; Cisbio, USA). […]

B1: a-Ab: monoclonal antibody previously reported as CA33; heavy chain SEQ ID NO 446, light chain SEQ ID NO 447; binds FABP4 and NDPK (antibody, listed as Homo sapiens)
heavy: QSVEESGGRLVTPGTPLTLTCTVSGFSLSTYYMSWVRQAPGKGLEWIGIIYPSGSTYCASWAKGRFTISKASTTVDLKITSPTTEDTATYFCARPDNDGTSGYLSGFGLWGQGLVTVSSAKTTPPSVYPLAPGSAAQTNSMVTLGCLVKGYFPEPVTVTWNSGSLSSGVHTFPAVLQSDLYTLSSSVTVPSSTWPSETVTCNVAHPASSTKVDKKIVPRDC
light: DVVMTQTPASVSEPVGGTVTIKCGASEDISRYLVWYQQKPGQPPKRLIYKASTLASGVPSRFKGSGSGTDFTLTISDLECDDAATYYCQCTYGTYAGSFFYSFGGGTEVVVERTDAAPTVSIFPPSSEQLTSGGASVVCFLNNFYPKDINVKWKIDGSERQNGVLNSWTDQDSKDCTYSMSSTLTLTKDEYERHNSYTCEATHKTSTSPIVKSFNRNEC
On to B1, for which the “ILN Cytotoxic T-Cells” value with non-diabetic NOD mice (inguinal lymph nodes) was found to be 21.4%. Moreover, in the series with non-diabetic NOD mice, the “Spleen Cytotoxic T-Cells” value turned out to be 11.5%. The “PLN Cytotoxic T-Cells” value with non-diabetic NOD mice (pancreatic lymph nodes) came out at 15.7%. In addition, the “binding affinity for recombinant FABP4” value in the series with FABP4 was “relatively weak binding affinity”. For the same molecule, the “ADK activity to produce ATP” value in the series with recombinant ADK (added to the NDPK-ADK/FABP4 complex, compared to the complex alone) is recorded as “no effect”. The “ADK activity to generate ATP” value in the series with recombinant ADK (recombinant ADK plus the added component) is listed as “no effect”. In addition, in the series with primary human islets, the “GSIS in response to the NDPK-ADK/FABP4 complex” value is “rescued”.

The record behind these values is US20230203142A1, “TREATMENT OF METABOLIC DISORDERS THROUGH THE TARGETING OF A NOVEL CIRCULATING HORMONE COMPLEX” (The President and Fellows of Harvard College, priority 2020, published 2023).
